Experimental data taken from patent US20070027096, “Aptamers to human epidermal growth factor receptor-3” (published 2007).

Columns and labels:
[1] = target: T1, HER3 extracellular domain (HER3ECD, ErbB3) (Homo sapiens, UniProt P21860 SEQ:20-643); experiment: EMSA; apparent Kd by displacement with unlabeled A30; no heregulin; 10 mM HEPES pH 7.4, 100 mM NaCl, 2.5 mM MgCl2, 37 C, 0.5 uM tRNA; conditions: tags: C-terminal V5 and hexa-His (pMT/BiP/V5-His A, S2 insect cells); chain copies: oligomeric (self-associated; stated); label: internal 32P; triple hairpin loop
T1 sequence (P21860 20-643 E560G): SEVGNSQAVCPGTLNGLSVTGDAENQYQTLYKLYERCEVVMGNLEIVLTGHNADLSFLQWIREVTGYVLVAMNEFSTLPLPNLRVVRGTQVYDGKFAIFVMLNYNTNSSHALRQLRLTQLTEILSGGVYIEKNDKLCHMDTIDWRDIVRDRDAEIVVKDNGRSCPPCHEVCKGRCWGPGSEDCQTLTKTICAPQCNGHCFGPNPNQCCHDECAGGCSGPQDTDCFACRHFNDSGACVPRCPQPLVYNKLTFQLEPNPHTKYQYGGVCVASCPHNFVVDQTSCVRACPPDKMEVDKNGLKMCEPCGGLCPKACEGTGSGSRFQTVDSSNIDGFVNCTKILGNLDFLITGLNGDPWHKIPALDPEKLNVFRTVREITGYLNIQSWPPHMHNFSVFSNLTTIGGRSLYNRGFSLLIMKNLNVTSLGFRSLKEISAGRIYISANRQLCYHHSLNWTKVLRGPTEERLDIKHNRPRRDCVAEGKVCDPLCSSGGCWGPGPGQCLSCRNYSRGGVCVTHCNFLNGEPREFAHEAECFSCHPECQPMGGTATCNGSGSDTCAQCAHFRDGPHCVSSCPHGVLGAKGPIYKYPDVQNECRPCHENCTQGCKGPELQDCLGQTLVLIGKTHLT
Procedure: (§1) For screening purposes, 8 pmol of internally labeled aptamer were incubated in binding buffer with 24 pmol of HER3ECD at 37° C. for 10 minutes and analyzed on 6% non-denaturing polyacrylamide gels as described above. Aptamers displaying substantial shift were reverse transcribed and sequenced. For subsequent analysis of A30 binding, internally labeled and unlabeled A30 was denatured at 90° C. for 2 min in PBS and cooled on ice for 1 min. A30 was incubated with HER3ECD in binding buffer for 10 min at 37° C. at the indicated concentrations and in the presence 0.5 μM tRNA and was analyzed by electrophoresis on a non-denaturing 6% polyacrylamide gel at 4° C. Were indicated, HER3ECD and heregulin were premixed at room temperature three minutes before the addition of A30.
(§2) Several lines of evidence provide evidence that the interaction of A30 with HER3ECD involves at least two different modes of binding. […] Addition of heregulin has two consequences. […] With respect to the heregulin-induced increase and dual mode of binding, we observed a similar, although less pronounced, effect for A30 binding to MCF7 cells (FIG. 4B+C). MCF7 cells endogenously express both HER3 and HER2. […] The addition of heregulin results in an increase in the number of A30 binding sites FIG. 4B), but this increase is relatively small (25% total 17% for low affinity and 8% for high affinity sites).

[2] = target: HER2 extracellular domain (HER2-ECD) (Homo sapiens, UniProt P04626 SEQ:23-652); experiment: EMSA; 0.5 uM protein; conditions: label: internal 32P; triple hairpin loop
heregulin = target: T2, heregulin (Homo sapiens); experiment: EMSA; 0.5 uM protein; conditions: label: internal 32P; triple hairpin loop
T2 chain: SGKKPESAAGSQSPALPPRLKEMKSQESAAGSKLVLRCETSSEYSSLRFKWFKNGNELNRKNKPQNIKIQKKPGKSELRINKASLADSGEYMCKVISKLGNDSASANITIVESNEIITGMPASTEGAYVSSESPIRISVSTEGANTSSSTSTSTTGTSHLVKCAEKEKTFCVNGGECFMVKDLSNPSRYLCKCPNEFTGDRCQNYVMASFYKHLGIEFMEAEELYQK

[3] = target: T3, HER3 on MCF7 cells (with endogenous HER2) (Homo sapiens, UniProt P21860 SEQ:20-1342); experiment: competition; high affinity site on MCF7 cells, 4 C, PBS, +/-0.2, Scatchard; conditions: label: internal 32P; triple hairpin loop
T3 sequence (P21860 20-1342 E560G/E1064G): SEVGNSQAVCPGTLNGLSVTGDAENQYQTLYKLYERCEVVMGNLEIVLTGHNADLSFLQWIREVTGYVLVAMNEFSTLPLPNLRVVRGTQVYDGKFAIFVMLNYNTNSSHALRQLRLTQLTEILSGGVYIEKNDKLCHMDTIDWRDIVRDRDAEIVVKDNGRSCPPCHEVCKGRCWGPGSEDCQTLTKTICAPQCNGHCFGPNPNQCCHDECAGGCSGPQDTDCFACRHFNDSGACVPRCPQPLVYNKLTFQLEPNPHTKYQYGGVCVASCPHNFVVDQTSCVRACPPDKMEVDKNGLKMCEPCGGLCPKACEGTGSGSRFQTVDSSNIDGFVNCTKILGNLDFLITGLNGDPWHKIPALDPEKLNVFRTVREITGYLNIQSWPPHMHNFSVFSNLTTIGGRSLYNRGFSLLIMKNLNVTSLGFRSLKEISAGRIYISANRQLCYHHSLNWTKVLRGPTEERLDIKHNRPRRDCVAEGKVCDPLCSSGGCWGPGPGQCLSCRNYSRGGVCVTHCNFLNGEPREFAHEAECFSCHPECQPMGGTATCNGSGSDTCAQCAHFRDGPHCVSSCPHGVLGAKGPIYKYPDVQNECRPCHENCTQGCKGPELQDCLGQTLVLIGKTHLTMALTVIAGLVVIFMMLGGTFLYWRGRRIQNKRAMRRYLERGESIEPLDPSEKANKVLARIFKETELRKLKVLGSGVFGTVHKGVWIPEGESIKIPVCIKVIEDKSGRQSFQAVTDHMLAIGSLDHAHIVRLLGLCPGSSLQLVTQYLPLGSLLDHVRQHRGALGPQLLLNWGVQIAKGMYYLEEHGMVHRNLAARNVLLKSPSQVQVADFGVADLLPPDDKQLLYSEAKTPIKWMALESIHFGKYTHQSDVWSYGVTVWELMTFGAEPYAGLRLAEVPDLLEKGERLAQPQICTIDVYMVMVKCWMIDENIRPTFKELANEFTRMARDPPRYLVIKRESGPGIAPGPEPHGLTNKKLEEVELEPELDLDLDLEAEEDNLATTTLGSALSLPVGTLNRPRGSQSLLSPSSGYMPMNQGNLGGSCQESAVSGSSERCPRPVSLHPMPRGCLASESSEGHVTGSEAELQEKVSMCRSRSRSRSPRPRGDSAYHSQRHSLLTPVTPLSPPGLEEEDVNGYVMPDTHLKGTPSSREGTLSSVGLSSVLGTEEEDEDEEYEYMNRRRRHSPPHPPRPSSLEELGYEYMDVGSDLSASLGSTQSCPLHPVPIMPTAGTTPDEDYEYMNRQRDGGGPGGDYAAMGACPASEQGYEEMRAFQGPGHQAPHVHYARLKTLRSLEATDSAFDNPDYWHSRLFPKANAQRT
Procedure: (§3) MCF7 cells (ATCC) were grown to 70% confluency on 6 well plates and washed with ice cold PBS. Following the washes, cells were incubated at 4° C. with 1 mL ice cold PBS or PBS containing 200 nM heregulin. After four hours an equal volume of ice cold PBS containing two microliter internally ³²P labeled A30 aptamer (80,000 cpm/μL), 20 μL RNAse inhibitor (20 units/μL), and varying concentrations of unlabeled aptamer were added. After four hours incubation, the supernatant was removed, and cells were washed three times with ice cold PBS. Displaced and bound radiolabeled aptamer was measured in duplicate.
as §2

[4] = target: T3, HER3 on MCF7 cells (with endogenous …); experiment: cell_activity; half-maximal inhibition of heregulin-specific MCF7 growth; maximum 50% inhibition; conditions: label: internal 32P; triple hairpin loop
Procedure: MCF7 cells were seeded in 96 well plates (2500 cells/well) in RPMI, 2% fetal bovine serum, 2 units of RNAse inhibitor/ml and varying concentrations of heregulin and aptamer. After two days, cell growth was determined using an MTT/tetrazolium based assay (Promega). Cell growth was equated with the absorbance of converted and solubilized dye at 560 nm. All samples were determined in triplicate.
Next, we evaluated the ability of A30 to interfere with receptor activation by wild type heregulin. […] In contrast, the activation of HER2 by EGF, which proceeds through hetetodimers of EGFR and HER2, is not inhibited by A30 (FIG. 7b). The low intensity of tyrosine phosphorylation of HER2 after stimulation by EGF is a reflection of the lower levels of EGFR (5000/cell) compared to HER2 (15,000) and HER3 (25,000) (see, e.g. Aguilar et al. (1999) Oncogene 18, 6050-62) and the fact that EGFR signaling proceeds only in part through heterodimers with HER2. To evaluate if the inhibition of tyrosine phosphorylation is reflected in a reduction in heregulin-specific growth stimulation, we incubated MCF7 cells in the presence of different concentrations of A30 and heregulin for two days (FIG. 8). […] Half-maximal inhibition occurs at around 1 nM A30. The addition of A30 alone has little effect on the growth of MCF7 cells.

[5] = target: T3, HER3 on MCF7 cells (with endogenous …); experiment: competition; low affinity site on MCF7 cells, 4 C, PBS, +/-2.2, Scatchard; conditions: label: internal 32P; triple hairpin loop
Procedure: as §3, §2

[6] = target: T1, HER3 extracellular domain (HER3ECD, …); experiment: EMSA; 8 pmol RNA with 24 pmol HER3ECD, 37 C; conditions: tags: C-terminal V5 and hexa-His (pMT/BiP/V5-His A, S2 insect cells); chain copies: oligomeric (self-associated; stated); label: internal 32P
Procedure: as §1

[7] = target: T1, HER3 extracellular domain (HER3ECD, …); experiment: EMSA; 8 pmol RNA with 24 pmol HER3ECD, 37 C; A18 and A30 do not displace each other; conditions: tags: C-terminal V5 and hexa-His (pMT/BiP/V5-His A, S2 insect cells); chain copies: oligomeric (self-associated; stated); label: internal 32P
Procedure: as §1

B1: A30 (ssRNA)
RNA: GGGAAUUCCGCGUGUGCCAGCGAAAGUUGCGUAUGGGUCACAUCGCAGGCACAUGUCAUCUGGGCGGUCCGUUCGGGAUCCUC
Q: How did the Kd [1] turn out when B1 was run?
A: 45 nM

Q: Does B1 bind [2]?
A: no binding

Q: Does B1 bind (heregulin)?
A: no binding

Q: And the Kd [3]?
A: 3.3 nM

Q: What about the IC50 [4] of the same binder?
A: ~1 nM

Q: What about the Kd [5] of the same binder?
A: 21 nM

B2: A37 (ssRNA)
RNA: GGGAAUUCCGCGUGUGCUUGAGAGGUCGUGCCAACUCUCAAGGUUGUCUUUGCUCUCCGCUCUGUGGUCCGUUCGGGAUCCUC
Q: Does B2 bind [6]?
A: binds

B3: A6 (ssRNA)
RNA: GGGAAUUCCGCGUGUGCAGAACAAUCGCAUAGGCCGCAAGGUUAGUUUCGUUGUCCGCCCGGUGCAGUCCGUUCGGGAUCCUC
Q: Does B3 bind [6]?
A: binds

B4: A18 (ssRNA)
RNA: GGGAAUUCCGCGUGUGCACGAGUAUAGCCCACAUGGCACGACAGGGACGUUUCAUGUGCACAGUUGGUCCGUUCGGGAUCCUC
Q: Does B4 bind [7]?
A: binds

B5: A19 (ssRNA)
RNA: GGGAAUUCCGCGUGUGCAGAUCAGGACAGAGCGCACAGGUGCCAUCCUGGUCUAACGCCCUCGAUGGUCCGUUCGGGAUCCUC
Q: Does B5 bind [6]?
A: binds

B6: A23 (ssRNA)
RNA: GGGAAUUCCGCGUGUGCGAGGGGCGAGGACGCCGAGUAUAGCCCCUAGAGGUGGAUGUUUCACGGUGUCCGUUCGGGAUCCUC
Q: Does B6 bind [6]?
A: binds
